As usually defined, the Kd is the constant that tells how readily two partners part at equilibrium.

The values below come from PMC4337903, “Simian Virus Large T Antigen Interacts with the N-Terminal Domain of the 70 kD Subunit of Replication Protein A in the Same Mode as Multiple DNA Damage Response Factors” (PLoS ONE, 2015).

Assay [1] deals with RPA70N (aa 1-120 of RPA70) used for ITC and NMR (UniProt P27694). Put plainly: ITC; 10 μl injections of 336 μM Tag(84-130) into 60 μM RPA70N in the cell; 25 mM Tris-Cl pH 7.5, 100 mM NaCl; single site model; average of three trials.
Assay [2] concerns the target T1, Simian virus 40 Large T-antigen (Tag), full length (Simian virus 40 (SV40), UniProt P03070 1-708).
T1 construct: SV40 Large T antigen, full length; The methods tell the removal of GST from full-length Tag for 'ITC and NMR studies'; for the pull-down the legend says only 'purified as described in Materials and Methods'; also called Large Tumor Antigen; full-length Tag; source: Rosetta 2 cells, GST-tagged, purified (glutathione agarose), treated with H3C PreScission protease
As to the kind of experiment: pull-down; GST-RPA70N (WT or R41/43E) or GST on glutathione beads, purified full-length Tag as prey; 4°C, 30 mM HEPES KOH pH 7.8, 10 mM KCl, 7 mM MgCl2, 10 μM ZnCl2, 2% non-fat dry milk; washes with 75 mM KCl; blot with pAb101 and anti-GST; also without antibody or after pre-incubation of Tag with control non-immune IgG. The conditions noted are these: both partners purified.

Molecule “Tag(84-130), GST removed (domain or fragment)” gave a Kd in assay [1] of 1280 nM.

B1: GST-RPA70N (N-terminal domain of the 70 kDa subunit of Replication Protein A, residues 1-120) (domain or fragment, UniProt P27694 1-120, looked up)
chain: MVGQLSEGAIAAIMQKGDTNIKPILQVINIRPITTGNSPPRYRLLMSDGLNTLSSFMLATQLNPLVEEEQLSSNCVCQIHRFIVNTLKDGRRVVILMELEVLKSAEAVGVKIGNPVPYNE
notes: also called GST-RPA70N WT; source: Rosetta 2 cells, purified (glutathione agarose)
B1: the binding result in assay [2] was “binds”.
